# Assay results as given in patent publication US20090226946.
# T1: S5a, P55036
# T1 chain: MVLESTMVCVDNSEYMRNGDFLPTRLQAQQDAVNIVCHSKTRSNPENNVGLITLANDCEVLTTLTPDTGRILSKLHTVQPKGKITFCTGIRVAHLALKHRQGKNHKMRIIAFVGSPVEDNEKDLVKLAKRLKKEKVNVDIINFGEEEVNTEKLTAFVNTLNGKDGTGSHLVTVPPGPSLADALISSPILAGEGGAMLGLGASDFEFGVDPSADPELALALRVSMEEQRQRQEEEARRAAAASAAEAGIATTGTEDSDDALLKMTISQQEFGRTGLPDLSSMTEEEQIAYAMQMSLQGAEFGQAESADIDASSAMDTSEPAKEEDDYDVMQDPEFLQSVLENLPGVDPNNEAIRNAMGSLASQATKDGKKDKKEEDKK
# B1: GST-Murf1 (protein)
# chain: MDYKSSLIQDGNPMENLEKQLICPICLEMFTKPVVILPCQHNLCRKCANDIFQAANPYWTSRGSSVSMSGGRFRCPTCRHEVIMDRHGVYGLQRNLLVENIIDIYKQECSSRPLQKGSHPMCKEHEDEKINIYCLTCEVPTCSMCKVFGIHKACEVAPLQSVFQGQKTELNNCISMLVAGNDRVQTIITQLEDSRRVTKENSHQVKEELSQKFDTLYAILDEKKSELLQRITQEQEKKLSFIEALIQQYQEQLDKSTKLVETAIQSLDEPGGATFLLTAKQLIKSIVEASKGCQLGKTEQGFENMDFFTLDLEHIADALRAIDFGTDEEEEEFIEEEDQEEEESTEGKEEGHQ
# B2: GST-Siah2 (protein)
# chain: MSRPSSTGPSANKPCSKQPPPQPQHTPSPAAPPAAATISAAGPGSSAVPAAAAVISGPGGGGGAGPVSPQHHELTSLFECPVCFDYVLPPILQCQAGHLVCNQCRQKLSCCPTCRGALTPSIRNLAMEKVASAVLFPCKYATTGCSLTLHHTEKPEHEDICEYRPYSCPCPGASCKWQGSLEAVMSHLMHAHKSITTLQGEDIVFLATDINLPGAVDWVMMQSCFGHHFMLVLEKQEKYEGHQQFFAIVLLIGTRKQAENFAYRLELNGNRRRLTWEATPRSIHDGVAAAIMNSDCLVFDTAIAHLFADNGNLGINVTISTCCP
# B3: GST-E6AP (protein)
# chain: MEKLHQCYWKSGEPQSDDIEASRMKRAAAKHLIERYYHQLTEGCGNEACTNEFCASCPTFLRMDNNAAAIKALELYKINAKLCDPHPSKKGASSAYLENSKGAPNNSCSEIKMNKKGARIDFKDVTYLTEEKVYEILELCREREDYSPLIRVIGRVFSSAEALVQSFRKVKQHTKEELKSLQAKDEDKDEDEKEKAACSAAAMEEDSEASSSRIGDSSQGDNNLQKLGPDDVSVDIDAIRRVYTRLLSNEKIETAFLNALVYLSPNVECDLTYHNVYSRDPNYLNLFIIVMENRNLHSPEYLEMALPLFCKAMSKLPLAAQGKLIRLWSKYNADQIRRMMETFQQLITYKVISNEFNSRNLVNDDDAIVAASKCLKMVYYANVVGGEVDTNHNEEDDEEPIPESSELTLQELLGEERRNKKGPRVDPLETELGVKTLDCRKPLIPFEEFINEPLNEVLEMDKDYTFFKVETENKFSFMTCPFILNAVTKNLGLYYDNRIRMYSERRITVLYSLVQGQQLNPYLRLKVRRDHIIDDALVRLEMIAMENPADLKKQLYVEFEGEQGVDEGGVSKEFFQLVVEEIFNPDIGMFTYDESTKLFWFNPSSFETEGQFTLIGIVLGLAIYNNCILDVHFPMVVYRKLMGKKGTFRDLGDSHPVLYQSLKDLLEYEGNVEDDMMITFQISQTDLFGNPMMYDLKENGDKIPITNENRKEFVNLYSDYILNKSVEKQFKAFRRGFHMVTNESPLKYLFRPEEIELLICGSRNLDFQALEETTEYDGGYTRDSVLIREFWEIVHSFTDEQKRLFLQFTTGTDRAPVGGLGKLKMIIAKNGPDTERLPTSHTCFNVLLLPEYSSKEKLKERLLKAITYAKGFGML
# B4: His-CHIP (protein)
# chain: MKGKEEKEGGARLGAGGGSPEKSPSAQELKEQGNRLFVGRKYPEAAACYGRAITRNPLVAVYYTNRALCYLKMQQHEQALADCRRALELDGQSVKAHFFLGQCQLEMESYDEAIANLQRAYSLAKEQRLNFGDDIPSALRIAKKKRWNSIEERRIHQESELHSYLSRLIAAERERELEECQRNHEGDEDDSHVRAQQACIEAKHDKYMADMDELFSQVDEKRKKRDIPDYLCGKISFELMREPCITPSGITYDRKDIEEHLQRVGHFDPVTRSPLTQEQLIPNLAMKEVIDAFISENGWVEDY
# B5: GST-Nedd4 (protein)
# chain: MATCAVEVFGLLEDEENSRIVRVRVIAGIGLAKKDILGASDPYVRVTLYDPMNGVLTSVQTKTIKKSLNPKWNEEILFRVHPQQHRLLFEVFDENRLTRDDFLGQVDVPLYPLPTENPRLERPYTFKDFVLHPRSHKSRVKGYLRLKMTYLPKTSGSEDDNAEQAEELEPGWVVLDQPDAACHLQQQQEPSPLPPGWEERQDILGRTYYVNHESRRTQWKRPTPQDNLTDAENGNIQLQAQRAFTTRRQISEETESVDNRESSENWEIIREDEATMYSNQAFPSPPPSSNLDVPTHLAEELNARLTIFGNSAVSQPASSSNHSSRRGSLQAYTFEEQPTLPVLLPTSSGLPPGWEEKQDERGRSYYVDHNSRTTTWTKPTVQATVETSQLTSSQSSAGPQSQASTSDSGQQVTQPSEIEQGFLPKGWEVRHAPNGRPFFIDHNTKTTTWEDPRLKIPAHLRGKTSLDTSNDLGPLPPGWEERTHTDGRIFYINHNIKRTQWEDPRLENVAITGPAVPYSRDYKRKYEFFRRKLKKQNDIPNKFEMKLRRATVLEDSYRRIMGVKRADFLKARLWIEFDGEKGLDYGGVAREWFFLISKEMFNPYYGLFEYSATDNYTLQINPNSGLCNEDHLSYFKFIGRVAGMAVYHGKLLDGFFIRPFYKMMLHKPITLHDMESVDSEYYNSLRWILENDPTELDLRFIIDEELFGQTHQHELKNGGSEIVVTNKNKKEYIYLVIQWRFVNRIQKQMAAFKEGFFELIPQDLIKIFDENELELLMCGLGDVDVNDWREHTKYKNGYSANHQVIQWFWKAVLMMDSEKRIRLLQFVTGTSRVPMNGFAELYGSNGPQSFTVEQWGTPEKLPRAHTCFNRLDLPPYESFEELWDKLQMAIENTQGFDGVD
# Target: T1, S5a, P55036
row,Protein,"Ubiquitinated S5a? (in vitro ubiquitination assay, Western blot with anti-S5a)"
1,B1,Yes
2,B2,Yes (low)
3,B3,Yes
4,B4,Yes
5,B5,Yes
